Test results reported in the supplement of paper PMC10724198.

Assays:
Saccharomyces cerevisiae [1] = assay: protein stability index of tFT-peptide fusion in wild type (PSI (0-1 scale)); higher = more stable (slower turnover); details: genetic background: wild type
Procedure: (§1)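 MPS profiling in S. cerevisiae of two library types built from selected 12-aa C-degron peptides (IN1, IN2, LN1, LN3, VN2, R1-R5, W1-W3, Atg1 and Rpa12 C-termini): saturation mutagenesis libraries and C-terminal +1 capping libraries (13 aa). Each peptide is fused to the C-terminus of a sfGFP-mCherry timer, after a GGGS linker. Cells are FACS-sorted into 8 mCherry/sfGFP bins and sequenced. PSI runs from 0 (unstable) to 1 (stable), measured once in wild type and in the das1Δ or doa10Δ background.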

Saccharomyces cerevisiae [2] = assay: protein stability index of tFT-peptide fusion in deletion strain of DAS1 (PSI (0-1 scale)); higher = more stable (slower turnover)
Procedure: as §1
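Throughout, for protein stability index of tFT-peptide fusion in deletion strain of DAS1: PSI is a weighted mean of each variant's read distribution over the sorted stability bins, computed only for variants having over 10 reads in total.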
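Throughout, for protein stability index of tFT-peptide fusion in wild type: PSI derived as read-weighted mean over the 8 sorting bins, only variants exceeding 10 total reads kept, mCherry placed adjacent to the peptide and sfGFP distal.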

Row | Sequence | protein stability index (Saccharomyces cerevisiae [1]) | protein stability index (Saccharomyces cerevisiae [2])
1 | LKILFQKMNHQN | 0.267 | 0.688
2 | LKILRAKMNHQN | 0.223 | 0.665
3 | LKILRQCMNHQN | 0.288 | 0.686
4 | LKILRQKCNHQN | 0.295 | 0.663
5 | LKILRQKINHQN | 0.23 | 0.668
6 | LKILRQKMKHQN | 0.568 | 0.687
7 | LKILRQKMLHQN | 0.227 | 0.643
8 | LKILRQKMNAQN | 0.208 | 0.671
9 | LKILRQKMNHQN | 0.192 | 0.674
10 | LKILRQKMNHQNK | 0.656 | 0.664
11 | LKILRQKMNHQNY | 0.595 | 0.705
12 | LKILRQKMNHQQ | 0.193 | 0.691
13 | LKILRQKMNKQN | 0.246 | 0.656
14 | LKILRQKMNRQN | 0.21 | 0.68
15 | LKILRQKMNVQN | 0.226 | 0.661
16 | LKILRQSMNHQN | 0.238 | 0.661
17 | LKILRRKMNHQN | 0.216 | 0.648
18 | LNVYLSCVACIN | 0.043 | 0.188
19 | LQILRQKMNHQN | 0.117 | 0.701
20 | LTVYLSCVACIN | 0.0165 | 0.0375

Row | Sequence | protein stability index (Saccharomyces cerevisiae [1]) | protein stability index (Saccharomyces cerevisiae [2])
21 | LVVYHSCVACIN | 0.181 | 0.313
22 | LVVYLACVACIN | 0.0186 | 0.041
23 | LVVYLCCVACIN | 0.0154 | 0.0405
24 | LVVYLDCVACIN | 0.0395 | 0.119
25 | LVVYLSCQACIN | 0.00888 | 0.0148
26 | LVVYLSCVAAIN | 0.0144 | 0.0388
27 | LVVYLSCVACEN | 0.132 | 0.132
28 | LVVYLSCVACIE | 0.0121 | 0.0184
29 | LVVYLSCVACINF | 0.024 | 0.0394
30 | LVVYLSCVACINL | 0.0224 | 0.0337
31 | LVVYLSCVACPN | 0.0732 | 0.0988
32 | LVVYLSCVACRN | 0.0192 | 0.0464
33 | LVVYLSCVMCIN | 0.0111 | 0.0156
34 | LVVYLSCVPCIN | 0.237 | 0.305
35 | LYVYLSCVACIN | 0.0152 | 0.0144
36 | NKILRQKMNHQN | 0.113 | 0.701
37 | PDKFNHLIKLLN | 0.117 | 0.622
38 | PDKPNHLIKLLN | 0.199 | 0.607
39 | PDKRGHLIKLLN | 0.113 | 0.593
40 | PDKRHHLIKLLN | 0.113 | 0.705

Row | Sequence | protein stability index (Saccharomyces cerevisiae [1]) | protein stability index (Saccharomyces cerevisiae [2])
41 | PDKRIHLIKLLN | 0.0865 | 0.589
42 | PDKRNCLIKLLN | 0.148 | 0.586
43 | PDKRNELIKLLN | 0.115 | 0.608
44 | PDKRNGLIKLLN | 0.222 | 0.614
45 | PDKRNHGIKLLN | 0.41 | 0.587
46 | PDKRNHLHKLLN | 0.265 | 0.59
47 | PDKRNHLIKHLN | 0.0778 | 0.601
48 | PDKRNHLIKLLD | 0.666 | 0.611
49 | PDKRNHLIKLLE | 0.579 | 0.606
50 | PDKRNHLIKLLNH | 0.142 | 0.669
51 | PDKRNHLIKLLNK | 0.655 | 0.67
52 | PDKRNHLIKLLNN | 0.137 | 0.666
53 | PDKRNHLIKLRN | 0.623 | 0.672
54 | PDKRNHLISLLN | 0.438 | 0.614
55 | PDKRNHLIWLLN | 0.0587 | 0.705
56 | PDKRNHLIYLLN | 0.0898 | 0.702
57 | PDKRNHMIKLLN | 0.0922 | 0.625
58 | PDKRNHNIKLLN | 0.172 | 0.602
59 | PDKRNHPIKLLN | 0.282 | 0.574
